The assay has as its target human low-density lipoprotein (LDL) particles (human). The experiment in a line: co-sedimentation.

As to “PCSK9 A44P (from UniProt Q8NBP7) (natural protein)”, the percent inhibition of LDL binding against WT is greater than 90%. In turn, “PCSK9 Y38A (from UniProt Q8NBP7) (natural protein)” displayed a percent decrease of LDL binding greater than 50%.

These data come from doi:10.1101/743195.
